Measured values from patent publication US20110104145A1 (published 2011).
Where no end group is shown, it is not given here.

What was measured:
[1] = molecular target: IgA (monomeric serum IgA, coated on beads or plates) (human, UniProt P01876-1 1-353); assay: cell-based or functional assay
[2] = molecular target: CD89 (Fc receptor for IgA) on polymorphonuclear cells (human, UniProt P24071 22-287); assay: cell-based or functional assay
Sequence of CD89 (Fc receptor for IgA) on polymorphonuclear cells (P24071 22-287): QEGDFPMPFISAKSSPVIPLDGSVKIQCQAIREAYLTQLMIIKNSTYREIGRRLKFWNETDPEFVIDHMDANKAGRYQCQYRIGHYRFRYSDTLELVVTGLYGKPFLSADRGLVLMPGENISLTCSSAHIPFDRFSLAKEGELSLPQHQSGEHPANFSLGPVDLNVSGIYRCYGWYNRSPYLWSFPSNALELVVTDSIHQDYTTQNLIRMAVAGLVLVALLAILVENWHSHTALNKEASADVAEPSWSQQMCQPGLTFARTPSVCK

Sequence of IgA (monomeric serum IgA, coated on beads or plates) (P01876 other isoform, or with tags, fused parts or gaps): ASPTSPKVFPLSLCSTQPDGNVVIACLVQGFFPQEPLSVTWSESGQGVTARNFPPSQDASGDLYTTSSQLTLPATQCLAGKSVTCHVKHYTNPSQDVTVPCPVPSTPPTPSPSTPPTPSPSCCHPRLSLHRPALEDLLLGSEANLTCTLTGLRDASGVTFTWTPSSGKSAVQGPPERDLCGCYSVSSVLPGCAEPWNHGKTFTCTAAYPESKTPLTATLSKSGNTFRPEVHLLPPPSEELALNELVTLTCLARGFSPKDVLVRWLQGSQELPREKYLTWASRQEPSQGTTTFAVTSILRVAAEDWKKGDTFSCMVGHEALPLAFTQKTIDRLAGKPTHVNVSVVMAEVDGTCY

| percentage blocking (polymorphonuclear cells bound to IgA-coated beads, 2-D migration assay) [1] | percentage blocking (polymorphonuclear cells bound to IgA-coated beads, 2-D migration assay) [2] | Binder |
| --- | --- | --- |
| ≤ 19% |  | REIGRRLKFWNETDP [Peptide Fc alpha 113] |
|  | ≤ 20% | CSMVGHEALPLAFTQKC-NH2 (cysteine pairing not given here) [peptide PEO-47 mP2#2,3] |
|  | ≤ 18% | HEALPLAFTQK-NH2 [peptide IgA CH3] |
